Experimental findings from patent US8980955, “Small molecule inhibitors of replication protein A that also act synergistically with cisplatin” (Indiana University Research and Technology) are described below.

In data set [1] the target is T1, RPA heterotrimer (p70/p34/p14, full-length) (Homo sapiens, UniProt P27694;P15927;P35244 P27694:1-616,P15927:1-270,P35244:1-121). Briefly: EMSA; 12.5 nM DNA; binding inhibited by MCI13E, MCI13F and CheSS19. To be noted: tags: untagged; label: 5'-32P. (In general: Mobility shift assays separate free from complexed probe on a gel.)
In a further data set the target is EcSSB (Escherichia coli, UniProt P0AGE0 P0AGE0:2-178). Briefly: EMSA; 25 nM DNA, 3.3 nM SSB tetramer, 20 mM HEPES pH 7.5, 100 mM NaCl; unaffected by CheSS19, MCI13E, MCI13F. To be noted: tags: Enzymatics, Beverly MA; chain copies: 4 stated; label: 5'-32P. Here is the method:
Referring now to FIG. 6B. CheSS19 titration in EcSSB DNA-binding reactions. CheSS19 (0, 25, 50, 100, and 200 μM) was pre-incubated with EcSSB and binding reactions were carried out. Referring now to FIG. 6C. Titration of MCI13E and MCI13F in EcSSB DNA-binding reactions. Concentrations of MCI13E/F used were: 0, 25, 50, 100, and 200 μM. In all panels, the 'Free' ssDNA is indicated with an arrow and the 'Bound' ssDNA is indicated by brackets. All reactions were performed in the same order and manner as the RPA binding reactions. EcSSB binding was unaffected by CheSS19 and the MCI13E and MCI13F compounds (FIGS. 6A and B).
EMSAs were performed similarly to those for the RPA constructs, with the following exceptions. Reactions contained 25 nM of 5'-[^32P]-labeled 3Pc3 ssDNA and 3.3 nM (assuming homotetramer formation) SSB protein (Enzymatics, Beverly, Mass.). Reactions (20 μL) were carried out in 20 mM HEPES, pH 7.5, 1 mM DTT, 0.01% NP-40, 100 mM NaCl, and resolved by 6% native polyacrylamide gel electrophoresis at 25 mA for 2 hours. Gels were dried and quantified via phosphorimager analysis and ImageQuant software (Molecular Dynamics).

Data set [2] addresses T1, RPA heterotrimer (p70/p34/p14, …). Briefly: EMSA; inhibited irreversibly by MCI13E. Particulars: tags: untagged; label: 5'-32P. Here is the method:
Considering the differential inhibition observed between the anhydride and halo esters with respect to specificity, experiments were carried out to determine if the isoborneol halo-esters inhibited full-length RPA in an irreversible fashion. Full-length RPA was mixed with MCI13E or vehicle control and the reaction mixtures were then dialyzed overnight. Referring now to FIG. 5. Gel showing irreversible inactivation of full-length heterotrimeric RPA by MCI13E. Incubation of RPA with MCI13E, dialysis and recovery was performed as described for FIG. 3. DNA binding activity of the resulting protein was assessed by EMSA using a 5'-[^32P]-ss 34-base DNA as described in "Methods". Lanes 1-4 pre-dialysis, lanes 5 and 6 post dialysis. […] In fact, the degree of inhibition was similar to that observed for the MCI13E treated RPA before dialysis (FIG. 5 lanes 3 and 4). […] This activity is consistent with MCI13E and F and their reaction with RPA serving as a pharmacodynamic marker of RPA inhibition or as a biomarker for RPA expression and activity.

For data set [3], the target named is T2, RPA p70 DBD-A/B (Homo sapiens, UniProt P27694 P27694:181-422).
T2 chain: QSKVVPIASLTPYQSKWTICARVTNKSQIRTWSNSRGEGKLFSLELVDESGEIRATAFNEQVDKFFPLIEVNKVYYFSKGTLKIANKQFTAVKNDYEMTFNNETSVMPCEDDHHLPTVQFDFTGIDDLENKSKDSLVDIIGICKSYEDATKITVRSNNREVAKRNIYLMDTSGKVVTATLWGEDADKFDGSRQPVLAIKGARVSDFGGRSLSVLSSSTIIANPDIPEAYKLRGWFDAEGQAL
Briefly: EMSA; not inhibited by MCI13E or MCI13F. Particulars: tags: His (pET15b, nickel-NTA purified); label: 5'-32P.

Data set [4] has as its target T2, RPA p70 DBD-A/B. Briefly: FP; 20 nM DNA; 10 mM HEPES pH 7.2, 100 mM NaCl; inhibited irreversibly by CheSS19. To be noted: tags: His (pET15b, nickel-NTA purified); label: fluorescein (F). Here is the method:
In an experiment reported herein, DBD-A/B was incubated with CheSS 19 and then the reaction mix dialyzed overnight to remove dissociable inhibitor.
Referring now to FIG. 3D. Bar graph showing results of fluorescence polarization analysis of CheSS19 inactivated RPA DBD-A/B. Referring now to FIG. 3D, RPA DBD-A/B was pre-incubated with vehicle (1% DMSO) or CheSS19 (1pmol in 1% DMSO) for 30 minutes at 37° C. Following incubation, the reaction mix was dialyzed versus H1 buffer overnight at 4° C. The protein was recovered and DNA binding activity measured by FP analysis of binding to an F-dT12 substrate was performed as described in "Methods". Bar 1, DNA control, Bar 2, control vehicle treated DBD-A/B, Bar 3, Chess19 treated DBD-A/B. The data represent the mean and range of two independent experiments.
Fluorescence polarization experiments were preformed as previously described (21). SMIs were diluted in H1 buffer (10 mM HEPES, pH 7.2, 1 mM DTT, 0.01% NP-40 and 100 mM NaCl) and the final DMSO concentration was kept below 1%.

T1 sequence (P27694 whole entry, chain 1 of 3): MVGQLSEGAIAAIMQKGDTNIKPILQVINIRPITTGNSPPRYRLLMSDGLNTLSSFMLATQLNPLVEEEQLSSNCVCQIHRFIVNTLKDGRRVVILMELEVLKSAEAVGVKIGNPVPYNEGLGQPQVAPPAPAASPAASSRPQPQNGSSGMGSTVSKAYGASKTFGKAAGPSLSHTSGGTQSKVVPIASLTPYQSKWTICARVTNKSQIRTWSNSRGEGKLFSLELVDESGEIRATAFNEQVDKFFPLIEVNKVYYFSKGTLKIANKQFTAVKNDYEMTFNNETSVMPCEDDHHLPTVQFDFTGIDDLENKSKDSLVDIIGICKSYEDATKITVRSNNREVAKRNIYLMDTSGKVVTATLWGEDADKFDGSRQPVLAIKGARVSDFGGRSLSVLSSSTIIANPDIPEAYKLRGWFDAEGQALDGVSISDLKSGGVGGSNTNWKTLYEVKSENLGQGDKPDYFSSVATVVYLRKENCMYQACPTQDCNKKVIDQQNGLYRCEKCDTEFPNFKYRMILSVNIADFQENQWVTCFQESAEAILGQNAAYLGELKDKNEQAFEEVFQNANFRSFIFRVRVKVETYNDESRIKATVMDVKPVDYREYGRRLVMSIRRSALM
T1 sequence (P15927 whole entry, chain 2 of 3): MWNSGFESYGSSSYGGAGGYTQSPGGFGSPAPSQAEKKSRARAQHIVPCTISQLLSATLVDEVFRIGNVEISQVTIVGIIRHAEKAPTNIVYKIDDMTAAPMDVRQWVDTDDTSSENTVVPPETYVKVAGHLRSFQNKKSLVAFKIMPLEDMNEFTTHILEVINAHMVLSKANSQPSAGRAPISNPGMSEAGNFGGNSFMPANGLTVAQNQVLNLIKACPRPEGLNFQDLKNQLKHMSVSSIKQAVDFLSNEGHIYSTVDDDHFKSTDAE
T1 sequence (P35244 whole entry, chain 3 of 3): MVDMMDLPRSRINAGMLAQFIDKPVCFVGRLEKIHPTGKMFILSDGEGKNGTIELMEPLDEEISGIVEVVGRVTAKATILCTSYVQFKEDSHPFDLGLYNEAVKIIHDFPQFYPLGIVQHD
Sequence of EcSSB (P0AGE0 2-178, one chain of several): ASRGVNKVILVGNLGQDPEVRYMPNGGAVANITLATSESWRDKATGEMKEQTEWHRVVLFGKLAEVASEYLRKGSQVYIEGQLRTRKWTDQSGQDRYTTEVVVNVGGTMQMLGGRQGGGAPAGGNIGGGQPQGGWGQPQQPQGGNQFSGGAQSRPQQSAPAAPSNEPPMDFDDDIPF

B1: 3Pc3 30-mer (ssDNA)
DNA: GGAGACCGAAGAGGAAAAGAAGGAGAGAGG
Consider B1, for which the binding result (in data set [1]; with EcSSB) was “binds” in each case.

B2: 34-mer (ssDNA)
DNA: CTAGAAAGGGGGAAGAAAGGGAAGAGGCCAGAGA
For the molecule B2, the binding result in data set [2] was “binds”.

B3: dT12 (ssDNA)
DNA: TTTTTTTTTTTT
Take B3: the binding result with RPA p70 DBD-A/B [3] is given as “binds”.

B4: F-dT12 (ssDNA)
DNA: TTTTTTTTTTTT
For the molecule B4, the binding result with RPA p70 DBD-A/B [4] is recorded as “binds”.
